In patent US20240239894A1, “THERAPEUTIC BINDING MOLECULES” (MedImmune Limited, priority 2020, published 2024):

Experiments:
[1] = target: T1, Human B7-H4-Fc (Human B7H4 ECD, Fc_6His) (human); experiment: ELISA on coated human B7H4/Fc, absorbance 450 nm, [IgG] 0.006 to 100 nM
T1 sequence (Q7Z7D3 whole entry, looked up): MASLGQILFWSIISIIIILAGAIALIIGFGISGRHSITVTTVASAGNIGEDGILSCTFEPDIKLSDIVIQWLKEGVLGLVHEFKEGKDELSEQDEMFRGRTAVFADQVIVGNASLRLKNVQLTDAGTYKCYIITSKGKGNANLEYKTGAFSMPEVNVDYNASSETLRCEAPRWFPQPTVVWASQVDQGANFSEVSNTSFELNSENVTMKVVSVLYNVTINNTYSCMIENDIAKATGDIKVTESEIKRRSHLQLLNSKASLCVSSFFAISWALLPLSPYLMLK

[2] = target: human B7-H4 on cells (human) (UniProt Q7Z7D3); experiment: flow cytometry, AF647-labelled antibody at 156 ng/ml, HT29 cells expressing hB7-H4

B1: 1D11 (Genentech anti-B7-H4 mAb) (antibody, from another filing, V domains shown)
VH: QVQLQQSGAELVRPGTSVKMSCKASGYTFTSYWIGWAKQRPGHGFEWIGDIYPGGGYTNYNEKFKGKATLTADKSSSTAYMQFSSLTSEDSAIYYCARLDGSSYRGAMDSWGQGTSITVSS
VL: DIQMTQSPSSLSASLGGKVTITCKASQGFNKYVAWYQHKPGQCPRLLIHYTSTLQPGIPARFSGSGSGRDYSFSISNLEPEDSATYFCLQYGNLLYAFGGGTKLEIKR
B1 showed an EC50 (read off the curve) [1] of 5 nM and a Geometric Mean : Comp-APC-A [2] of 1200.
